Among the data in article PMC11910330, “Familial Alzheimer’s disease mutations in amyloid precursor protein impair calcineurin signaling to NMDA receptors” (The Journal of Biological Chemistry, 2024) are response (% CaN input recovered) values, retold here.

This assay concerns the target recombinant GST-tagged CaN A subunit, Q08209. The assay is described as follows: in vitro peptide pull-down (biotinylated peptide, immunoblot quantification). Particulars: chain shown with the change; recombinant GST-CaN (200 ng); parent: est. 47; read off a plot. On the technique in general: In western blotting, separated proteins are transferred to a membrane and probed.
For the molecule MAGPHTVIFITGPHEE [APP peptide (APP core CaN-binding sequence in the PVIVIT peptide) V642F], the response (% CaN input recovered) was 44.
To MAGPHIVIVITGPHEE [APP peptide (APP core CaN-binding sequence in the PVIVIT peptide) T639I] belongs 54.
To MAGPHTVIIITGPHEE [APP peptide (APP core CaN-binding sequence in the PVIVIT peptide) V642I] belongs 44; to MAGPHTVIVIPGPHEE [APP peptide (APP core CaN-binding sequence in the PVIVIT peptide) T644P], 5.
To MAGPHTVFVITGPHEE [APP peptide (APP core CaN-binding sequence in the PVIVIT peptide) I641F] belongs 23; to MAGPHTMIVITGPHEE [APP peptide (APP core CaN-binding sequence in the PVIVIT peptide) V640M], 43.
